{"source": "paper doi:10.1101/2022.01.06.475303", "target": "SARS-CoV-2 receptor binding domain (RBD), Wuhan-1 (SARS-CoV-2 Wuhan-Hu-1) (UniProt P0DTC2)", "data": [{"substance": "CC6.33 IgG (antibody)", "values": [{"measurement": "neutralization IC50 against pseudotyped SARS-CoV-2 (Hela-hACE2 cells)", "value": 0.228, "unit": "µg/mL"}]}]}
